According to paper PMC12490080, “Natural variation in Arabidopsis thaliana highlights a key role of glyoxalase I;2 in detoxifying glucose-derived reactive carbonyl species” (BMC Plant Biology, 2025):

B1: GLXI;2 (Col-0 GLXI;2) (Arabidopsis thaliana) (protein)
chain: MAEASDLLEWPKKDNRRFLHVVYRVGDLDRTIEFYTEVFGMKLLRKRDIPEEKYSNAFLGFGPETSNFVVELTYNYGVSSYDIGTGFGHFAISTQDVSKLVENVRAKGGNVTREPGPVKGGGSVIAFVKDPDGYTFELIQRGPTPEPFCQVMLRVGDLDRAIKFYEKALGMRLLRKIERPEYKYTIGMMGYAEEYESIVLELTYNYDVTEYTKGNAYAQIAIGTDDVYKSGEVIKIVNQELGGKITREAGPLPGLGTKIVSFLDPDGWKTVLVDNKDFLKELE
notes: monomer; two domains, active site 2 (His89, Glu137, Gln150, Glu201)
B2: GLXI;2 (Col-0 GLXI;2) (Arabidopsis thaliana; K229N) (protein)
chain: MAEASDLLEWPKKDNRRFLHVVYRVGDLDRTIEFYTEVFGMKLLRKRDIPEEKYSNAFLGFGPETSNFVVELTYNYGVSSYDIGTGFGHFAISTQDVSKLVENVRAKGGNVTREPGPVKGGGSVIAFVKDPDGYTFELIQRGPTPEPFCQVMLRVGDLDRAIKFYEKALGMRLLRKIERPEYKYTIGMMGYAEEYESIVLELTYNYDVTEYTKGNAYAQIAIGTDDVYNSGEVIKIVNQELGGKITREAGPLPGLGTKIVSFLDPDGWKTVLVDNKDFLKELE
notes: as for B1
B3: GLXI;2 (Col-0 GLXI;2) (Arabidopsis thaliana; F278I) (protein)
chain: MAEASDLLEWPKKDNRRFLHVVYRVGDLDRTIEFYTEVFGMKLLRKRDIPEEKYSNAFLGFGPETSNFVVELTYNYGVSSYDIGTGFGHFAISTQDVSKLVENVRAKGGNVTREPGPVKGGGSVIAFVKDPDGYTFELIQRGPTPEPFCQVMLRVGDLDRAIKFYEKALGMRLLRKIERPEYKYTIGMMGYAEEYESIVLELTYNYDVTEYTKGNAYAQIAIGTDDVYKSGEVIKIVNQELGGKITREAGPLPGLGTKIVSFLDPDGWKTVLVDNKDILKELE
notes: as for B1
B4: GLXI;2 (Col-0 GLXI;2) (Arabidopsis thaliana; F278I/K229N) (protein)
chain: MAEASDLLEWPKKDNRRFLHVVYRVGDLDRTIEFYTEVFGMKLLRKRDIPEEKYSNAFLGFGPETSNFVVELTYNYGVSSYDIGTGFGHFAISTQDVSKLVENVRAKGGNVTREPGPVKGGGSVIAFVKDPDGYTFELIQRGPTPEPFCQVMLRVGDLDRAIKFYEKALGMRLLRKIERPEYKYTIGMMGYAEEYESIVLELTYNYDVTEYTKGNAYAQIAIGTDDVYNSGEVIKIVNQELGGKITREAGPLPGLGTKIVSFLDPDGWKTVLVDNKDILKELE
notes: as for B1

What was measured:
purified protein [1] = substrate: CC(=O)C=O; test: purified protein; format: biochemical, Arabidopsis thaliana; settings: true substrate is the hemithioacetal of MGO and GSH (preformed 30 min; HTA concentration calculated with Kdiss 3.0 mM), 1.7 mM GSH, 0.5 mM Ni2+, 100 mM MOPS pH 7.0, 25 °C
purified protein [2] = substrate: O=CC=O; test: purified protein; format: biochemical, Arabidopsis thaliana; settings: true substrate is the hemithioacetal of GO and GSH (preformed 30 min; HTA concentration calculated with Kdiss 3.0 mM), 1.7 mM GSH, 0.5 mM Mn2+, 100 mM MOPS pH 7.0, 25 °C

Row | Protein | Km (purified protein [1]) | kcat (purified protein [1]) | kcat/Km (purified protein [1]) | Km (purified protein [2]) | kcat (purified protein [2]) | kcat/Km (purified protein [2])
1 | B1 | 297 ± 14 µM | 7.5 ± 0.9 s⁻¹ | 25300 ± 1700 M⁻¹ s⁻¹ | 411 ± 18 µM | 2.8 ± 0.3 s⁻¹ | 6800 ± 600 M⁻¹ s⁻¹
2 | B2 | 295 ± 23 µM | 9.1 ± 1.7 s⁻¹ | 26400 ± 2200 M⁻¹ s⁻¹ | 415 ± 17 µM | 2.4 ± 0.3 s⁻¹ | 6500 ± 500 M⁻¹ s⁻¹
3 | B3 | 311 ± 18 µM | 8.4 ± 1.2 s⁻¹ | 27000 ± 2400 M⁻¹ s⁻¹ | 403 ± 12 µM | 2.5 ± 0.4 s⁻¹ | 6200 ± 300 M⁻¹ s⁻¹
4 | B4 | 302 ± 15 µM | 8.1 ± 1.1 s⁻¹ | 25800 ± 2100 M⁻¹ s⁻¹ | 407 ± 15 µM | 2.6 ± 0.3 s⁻¹ | 6700 ± 500 M⁻¹ s⁻¹
